Values quoted from earlier work in publication PMC7277390.

Molecular target: serum albumin (MSA) (Mus musculus) (UniProt P07724)
UniProt P07724, sequence (P07724 25-608): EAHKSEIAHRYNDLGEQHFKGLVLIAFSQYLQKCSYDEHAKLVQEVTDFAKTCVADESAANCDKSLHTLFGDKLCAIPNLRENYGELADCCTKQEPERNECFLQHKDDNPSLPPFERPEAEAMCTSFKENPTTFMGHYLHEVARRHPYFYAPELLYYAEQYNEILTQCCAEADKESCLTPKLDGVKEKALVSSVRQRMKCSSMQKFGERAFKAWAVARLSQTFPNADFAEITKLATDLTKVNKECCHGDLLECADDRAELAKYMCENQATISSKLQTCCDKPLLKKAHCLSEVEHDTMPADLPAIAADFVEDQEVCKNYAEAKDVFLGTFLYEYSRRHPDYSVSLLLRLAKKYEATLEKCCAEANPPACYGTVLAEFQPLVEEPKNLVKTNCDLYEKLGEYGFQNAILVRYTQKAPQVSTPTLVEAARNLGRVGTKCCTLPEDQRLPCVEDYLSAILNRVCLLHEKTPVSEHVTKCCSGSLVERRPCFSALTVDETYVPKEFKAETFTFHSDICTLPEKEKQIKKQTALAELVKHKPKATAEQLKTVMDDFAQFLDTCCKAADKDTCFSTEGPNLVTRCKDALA

Kd: 546 nM
Substance: FcRn (from UniProt Q61559)
